Consider one molecule from PMC4893650 (Theranostics, 2016).

The target in this test is purified HER2 protein (human epidermal growth factor receptor-2) (human, UniProt P04626 23-652). The experiment in a line: SPR.

Consider CDTFPYLGWWNPNEYRY [peptide P51], for which the Kd worked out at 18.6 nM.
